Earlier results as cited in paper PMC11764136.

Target: amyloid-β oligomers Aβ (Homo sapiens) (UniProt P05067)

PrPC (from UniProt P04156)
Kd: 4 nM
